Measurements: article PMC11529724

Molecular target: microtubules assembled from porcine brain tubulin (porcine) (UniProt P02550)
Sequence (P02550 whole entry, chain 1 of 2): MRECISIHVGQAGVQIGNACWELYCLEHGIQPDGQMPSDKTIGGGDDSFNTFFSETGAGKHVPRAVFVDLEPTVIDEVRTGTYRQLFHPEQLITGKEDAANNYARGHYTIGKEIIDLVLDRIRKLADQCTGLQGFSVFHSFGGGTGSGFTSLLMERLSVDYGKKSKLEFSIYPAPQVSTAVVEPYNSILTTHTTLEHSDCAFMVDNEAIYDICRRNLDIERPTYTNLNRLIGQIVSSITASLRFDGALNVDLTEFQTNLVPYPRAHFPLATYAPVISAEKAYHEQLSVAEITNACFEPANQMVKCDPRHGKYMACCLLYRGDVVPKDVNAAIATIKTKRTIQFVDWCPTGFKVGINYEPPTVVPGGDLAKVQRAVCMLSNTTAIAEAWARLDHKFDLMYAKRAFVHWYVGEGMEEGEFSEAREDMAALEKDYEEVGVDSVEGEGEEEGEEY
Sequence (P02554 whole entry, chain 2 of 2, further chain): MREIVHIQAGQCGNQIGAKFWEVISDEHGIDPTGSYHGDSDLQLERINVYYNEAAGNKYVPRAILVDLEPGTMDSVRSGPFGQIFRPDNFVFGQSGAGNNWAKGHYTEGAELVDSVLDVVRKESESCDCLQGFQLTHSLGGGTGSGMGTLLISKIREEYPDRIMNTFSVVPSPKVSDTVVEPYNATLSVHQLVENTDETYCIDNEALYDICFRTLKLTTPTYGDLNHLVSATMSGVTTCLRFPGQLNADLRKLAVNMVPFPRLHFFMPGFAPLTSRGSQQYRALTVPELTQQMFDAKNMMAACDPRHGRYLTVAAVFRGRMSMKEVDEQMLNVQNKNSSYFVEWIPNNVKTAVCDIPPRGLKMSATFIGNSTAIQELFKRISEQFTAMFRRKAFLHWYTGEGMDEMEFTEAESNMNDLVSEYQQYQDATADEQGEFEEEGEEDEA

glutamylation activity with taxol-stabilized MTs, normalized to WT | glutamylation activity with taxol-stabilized MTs, decrease against WT | Substance
55 % of WT | – | TTLL6 with R403 and R407 mutated to alanine (from UniProt A4Q9E8 51-502) (enzyme)
– | 47 % decrease | TTLL6 with R415 and R418 mutated to alanine (from UniProt A4Q9E8 51-502) (enzyme)
